B1: PDL1-C40-6A7-FV3A1 (IgG1) (bispecific antibody)
heavy: EVQLLESGGGLVQPGGSLRLSCAASGFTFSSYIMMWVRQAPGKGLEWVSSIYPSGGITFYADTVKGRFTISRDNSKNTLYLQMNSLRAEDTAVYYCARIKLGTVTTVDYWGQGTLVTVSSASTKGPSVFPLAPSSKSTSGGTAALGCLVKDYFPEPVTVSWNSGALTSGVHTFPAVLQSSGLYSLSSVVTVPSSSLGTQTYICNVNHKPSNTKVDKKVEPKSCDKTHTCPPCPAPELLGGPSVFLFPPKPKDTLMISRTPEVTCVVVDVSHEDPEVKFNWYVDGVEVHNAKTKPREEQYNSTYRVVSVLTVLHQDWLNGKEYKCKVSNKALPAPIEKTISKAKGQPREPQVYTLPPSRDELGGGGSGGGGSDVVMTQSPLSLPVTLGQPASISCRSSQSLLHSNGNTYLHWYQQRPGQSPNHLIYQVSNRFSGVPDRFSGSGSGTDFTLKISRVEAEDVGVYFCSQTTHVPWTFGCGTKVEIKGGGGSGGGGSGGGGSGGGGSQVQLVQSGAEVKKPGASVKLSCKASGYTFISYYIYWVKQAPGQCLEWIGGINPRNGGTNFNEKFKSRATLTVDTSISTAYMELSRLRSEDTAVYYCTRHGNGVYWGQGTTLTVSSGGGGSGGGGSTKNQVSLTCLVKGFYPSDIAVEWESNGQPENNYKTTPPVLDSDGSFFLYSKLTVDKSRWQQGNVFSCSVMHEALHNHYTQKSLSLSPGK
light: QSALTQPASVSGSPGQSITISCTGTSSDVGGYNYVSWYQQHPGKAPKLMIYDVSNRPSGVSNRFSGSKSGNTASLTISGLQAEDEADYYCSSYTSSSTRVFGTGTKVTVLGQPKANPTVTLFPPSSEELQANKATLVCLISDFYPGAVTVAWKADGSPVKAGVETTKPSKQSNNKYAASSYLSLTPEQWKSHRSYSCQVTHEGSTVEKTVAPTECS
notes: IgG1
B2: PDL1-C40-6A7-FV3A2 (IgG1) (bispecific antibody)
heavy: EVQLLESGGGLVQPGGSLRLSCAASGFTFSSYIMMWVRQAPGKGLEWVSSIYPSGGITFYADTVKGRFTISRDNSKNTLYLQMNSLRAEDTAVYYCARIKLGTVTTVDYWGQGTLVTVSSASTKGPSVFPLAPSSKSTSGGTAALGCLVKDYFPEPVTVSWNSGALTSGVHTFPAVLQSSGLYSLSSVVTVPSSSLGTQTYICNVNHKPSNTKVDKKVEPKSCDKTHTCPPCPAPELLGGPSVFLFPPKPKDTLMISRTPEVTCVVVDVSHEDPEVKFNWYVDGVEVHNAKTKPREEQYNSTYRVVSVLTVLHQDWLNGKEYKCKVSNKALPAPIEKTISKAKGQPREPQVYTLPPSRDELTGGGGSGGGGSDVVMTQSPLSLPVTLGQPASISCRSSQSLLHSNGNTYLHWYQQRPGQSPNHLIYQVSNRFSGVPDRFSGSGSGTDFTLKISRVEAEDVGVYFCSQTTHVPWTFGCGTKVEIKGGGGSGGGGSGGGGSGGGGSQVQLVQSGAEVKKPGASVKLSCKASGYTFISYYIYWVKQAPGQCLEWIGGINPRNGGTNFNEKFKSRATLTVDTSISTAYMELSRLRSEDTAVYYCTRHGNGVYWGQGTTLTVSSGGGGSGGGGSKNQVSLTCLVKGFYPSDIAVEWESNGQPENNYKTTPPVLDSDGSFFLYSKLTVDKSRWQQGNVFSCSVMHEALHNHYTQKSLSLSPGK
light: B1 light
notes: IgG1; scFv inserted between EU 359 and 360
B3: C40-6A7 (IgG2) (antibody, V domains shown)
VH: QVQLVQSGAEVKKPGASVKLSCKASGYTFISYYIYWVKQAPGQGLEWIGGINPRNGGTNFNEKFKSRATLTVDTSISTAYMELSRLRSEDTAVYYCTRHGNGVYWGQGTTLTVSS
VL: DVVMTQSPLSLPVTLGQPASISCRSSQSLLHSNGNTYLHWYQQRPGQSPNHLIYQVSNRFSGVPDRFSGSGSGTDFTLKISRVEAEDVGVYFCSQTTHVPWTFGGGTKVEIK
notes: IgG2; also called original anti-CD40 monoclonal antibody

Target: human CD40 (hCD40-his) (human, UniProt P25942 21-193)
Test: SPR Biacore T200; binder captured on protein A chip, target as analyte
Method: Binding affinity to human CD40 of the obtained fusion proteins PDL1-C40-6A7-FV3A (IgG1), PDL1-C40-6A7-FV3A-IgG4, PDL1-C40-6A7-FV3C (IgG1), PDL1-C40-6A7-FV3A1 (IgG1), PDL1-C40-6A7-FV3A2 (IgG1), and PDL1-C40-6A7-FV3A3 (IgG1) were determined by surface plasmon resonance (SPR) using Biacore™ T200 biosensor equipped with pre-immobilized protein A sensor chips. The original anti-CD40 monoclonal antibody C40-6A7 IgG2 (6A7, VH SEQ ID NO: 91, VL SEQ ID NO: 92), which the scFV was derived from, was used as a control.

Sequence of human CD40 (hCD40-his) (P25942 21-193 limits assumed): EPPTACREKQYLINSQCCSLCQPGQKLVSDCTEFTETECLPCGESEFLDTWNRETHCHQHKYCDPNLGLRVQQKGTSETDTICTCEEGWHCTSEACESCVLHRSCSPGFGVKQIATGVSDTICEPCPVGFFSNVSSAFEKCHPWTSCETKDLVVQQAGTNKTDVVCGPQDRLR

Kd	koff	kon	Binder
0.63 nM	0.000388 s⁻¹	616000 M⁻¹ s⁻¹	B1
0.847 nM	0.000375 s⁻¹	443000 M⁻¹ s⁻¹	B2
3.09 nM	0.00171 s⁻¹	554000 M⁻¹ s⁻¹	B3

Reference: US20240360201A1 (BIOCYTOGEN PHARMACEUTICALS BEIJING, published 2024)
